The text below walks through data of article PMC9030869, “Interplay between Alba and Cren7 Regulates Chromatin Compaction in Sulfolobus solfataricus” (Biomolecules, 2022).

For the assay, the target named is T1, Sulfolobus solfataricus Alba1 (S. solfataricus, UniProt P60849 1-97).
T1 construct: Alba1 of Sulfolobus solfataricus; construct obtained from Dr. Malcolm White (University of St. Andrews); It was obtained from Dr. Malcolm White; source: E. coli BL21(DE3), purified (HiTrap SPHP cation exchange, size exclusion chromatography)
T1 sequence (looked up): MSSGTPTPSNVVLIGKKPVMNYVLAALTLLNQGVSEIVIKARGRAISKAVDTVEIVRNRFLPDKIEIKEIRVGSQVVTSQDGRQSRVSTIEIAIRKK
In words: SEC; equimolar amounts (~100 µM) of Alba1 and Alba2 mixed, then run on a TSKgel G3000SWxl column with 150 mM NaCl in Buffer A as mobile phase. The conditions noted are these: both partners purified.

B1: Sulfolobus solfataricus Alba2 (natural protein, S. solfataricus, UniProt Q97ZF4 1-89, looked up)
chain: MTEKLNEIVVRKTKNVEDHVLDVIVLFNQGIDEVILKGTGREISKAVDVYNSLKDRLGDGVQLVNVQTGSEVRDRRRISYILLRLKRVY
notes: Alba2 of Sulfolobus solfataricus, homologue of Alba1; construct obtained from Dr. Malcolm White (University of St. Andrews); It was obtained from Dr. Malcolm White; source: E. coli BL21(DE3), purified (HiTrap SPHP cation exchange, size exclusion chromatography)
Turning to B1, the binding result is “binds”.
